Data taken from article PMC6377645, “Structural insights into chaperone addiction of toxin-antitoxin systems” (Nature Communications, 2019).
“And” between values parts separate entries of the source, which are not always exact repeats. Identical values can stand only once.

B2: ChAD peptide, Mtb-HigA1(104-116) (peptide)
peptide: EVPTWHRLSSYRG
notes: residues 104-116 of the antitoxin Mtb-HigA1 of Mycobacterium tuberculosis (chaperone addiction region); also called C4; 13-mer ChAD peptide
B3: Mtb-SecB^TA chaperone (Rv1957), His6-tag removed (natural protein)
chain: MTDRTDADDLDLQRVGARLAARAQIRDIRLLRTQAAVHRAPKPAQGLTYDLEFEPAVDADPATISAFVVRISCHLRIQNQAADDDVKEGDTKDETQDVATADFEFAALFDYHLQEGEDDPTEEELTAYAATTGRFALYPYIREYVYDLTGRLALPPLTLEILSRPMPVSPGAQWPATRGTP
notes: SecB-like chaperone Mtb-SecB^TA (Rv1957) of Mycobacterium tuberculosis, 181 amino acids; untagged mass printed as 20,388 Da; Residues of the pET15b vector may remain after thrombin cleavage (surmised from the printed mass); For MST the protein was labelled with the dye NT-647; also called SecB-like chaperone; TA-associated SecB chaperone; not shown: His6, N-terminal, cleaved

Columns and labels:
[1] = biological target: B3; test: SEC-MALS; Superdex 200 Increase 5/150; 20 mM MES, 200 mM NaCl, pH 6.5; 15 °C; Mtb-SecB^TA 49.1 µM, Mtb-SecB^TA/HigA1 6.5 µM, Mtb-HigA1^ΔC42 100 µM; conditions: both partners purified
[2] = biological target: the molecule itself; test: as above
[3] = biological target: B3; test: native MS; Mtb-SecB^TA/HigA1 9.7 µM (hexamer) in 200 mM ammonium acetate pH 7, with 0 to 16 ChAD peptide molecules per hexamer; conditions: both partners purified
[4] = biological target: B3; test: ITC; ChAD peptide (80-620 µM) injected into Mtb-SecB^TA (18-48 µM) in the cell; 12 °C; 20 mM MES, 200 mM NaCl, pH 6.5; one set of sites; Kd and enthalpy printed once for direct and reverse conditions; conditions: both partners purified
[5] = biological target: B3; test: MST; 100 nM NT-647-labelled Mtb-SecB^TA with 3 nM to 100 µM ChAD peptide; 20 mM MES, 200 mM NaCl, 0.025% Tween 20, pH 6.5; 22 °C; conditions: both partners purified
[6] = biological target: B3; test: native MS; Mtb-SecB^TA 11.8 µM (tetramer) in 200 mM ammonium acetate pH 7, titrated with ChAD peptide at molar ratios 0 to 20 per tetramer; control peptides C2, C3, C7 at 8 peptides per tetramer; Kd fitted with UniDec, 4 sites, all KD's free; conditions: both partners purified
[7] = biological target: B2; test: ITC; reverse conditions (protocol of the reverse titration not described); 12 °C; 20 mM MES, 200 mM NaCl, pH 6.5; conditions: both partners purified
SEC-MALS = biological target: the molecule itself; test: SEC-MALS

B1: Mtb-HigA1 antitoxin, full length, untagged (natural protein)
chain: MSIDFPLGDDLAGYIAEAIAADPSFKGTLEDAEEARRLVDALIALRKHCQLSQVEVAKRMGVRQPTVSGFEKEPSDPKLSTLQRYARALDARLRLVLEVPTLREVPTWHRLSSYRGSARDHQVRVGADKEILMQTNWARHISVRQVEVA
notes: antitoxin HigA1 of the TAC system of Mycobacterium tuberculosis, untagged; Obtained only in complex with Mtb-SecB^TA (4:2 hetero-hexamer); also called TAC antitoxin
stoichiometry N [1]: 0.5 HigA1 chains per SecB^TA chain (printed as 4:2 chaperone/antitoxin) | stoichiometry N [2]: 2 | stoichiometry N [3]: 0.5 HigA1 chains per SecB^TA chain (printed as 4:2 Mtb-SecB^TA/HigA1)

B2
Kd [4]: 1900 ± 200 nM | dH [4]: -12 kcal/mol | stoichiometry N [4]: 0.47 | Kd [5]: 2600 ± 600 nM | Kd of the single binding events (four sites fitted, all KD's free) [6]: 6000 to 17000 nM | stoichiometry N [6]: ≤ 4 peptides per tetramer

B3
stoichiometry N [7]: 2.2 | stoichiometry N [2]: 4

B4: Mtb-SecB^TA with a N-terminal His6-tag (before thrombin cleavage) (natural protein)
chain: MTDRTDADDLDLQRVGARLAARAQIRDIRLLRTQAAVHRAPKPAQGLTYDLEFEPAVDADPATISAFVVRISCHLRIQNQAADDDVKEGDTKDETQDVATADFEFAALFDYHLQEGEDDPTEEELTAYAATTGRFALYPYIREYVYDLTGRLALPPLTLEILSRPMPVSPGAQWPATRGTP
notes: SecB-like chaperone Mtb-SecB^TA (Rv1957) of Mycobacterium tuberculosis, 181 amino acids; also called His6-Mtb-SecB^TA; not shown: His6, N-terminal, kept
stoichiometry N (SEC-MALS): 8 and 4
